Source: patent publication US20050100554A1 (published 2005)

Assays:
[1] = target: T1, ribosomal protein L13 (human, UniProt P26373 1-211); assay: Y2H; INT ID 396
T1 construct: also called RPL13; cbe_1380530

[2] = target: T2, catenin (cadherin-associated protein), delta 2 (neural plakophilin-related arm-repeat protein) (human, UniProt Q9UQB3 1-1225); assay: Y2H; INT ID 397
T2 construct: also called CTNND2; cbe_1796502
T2 sequence: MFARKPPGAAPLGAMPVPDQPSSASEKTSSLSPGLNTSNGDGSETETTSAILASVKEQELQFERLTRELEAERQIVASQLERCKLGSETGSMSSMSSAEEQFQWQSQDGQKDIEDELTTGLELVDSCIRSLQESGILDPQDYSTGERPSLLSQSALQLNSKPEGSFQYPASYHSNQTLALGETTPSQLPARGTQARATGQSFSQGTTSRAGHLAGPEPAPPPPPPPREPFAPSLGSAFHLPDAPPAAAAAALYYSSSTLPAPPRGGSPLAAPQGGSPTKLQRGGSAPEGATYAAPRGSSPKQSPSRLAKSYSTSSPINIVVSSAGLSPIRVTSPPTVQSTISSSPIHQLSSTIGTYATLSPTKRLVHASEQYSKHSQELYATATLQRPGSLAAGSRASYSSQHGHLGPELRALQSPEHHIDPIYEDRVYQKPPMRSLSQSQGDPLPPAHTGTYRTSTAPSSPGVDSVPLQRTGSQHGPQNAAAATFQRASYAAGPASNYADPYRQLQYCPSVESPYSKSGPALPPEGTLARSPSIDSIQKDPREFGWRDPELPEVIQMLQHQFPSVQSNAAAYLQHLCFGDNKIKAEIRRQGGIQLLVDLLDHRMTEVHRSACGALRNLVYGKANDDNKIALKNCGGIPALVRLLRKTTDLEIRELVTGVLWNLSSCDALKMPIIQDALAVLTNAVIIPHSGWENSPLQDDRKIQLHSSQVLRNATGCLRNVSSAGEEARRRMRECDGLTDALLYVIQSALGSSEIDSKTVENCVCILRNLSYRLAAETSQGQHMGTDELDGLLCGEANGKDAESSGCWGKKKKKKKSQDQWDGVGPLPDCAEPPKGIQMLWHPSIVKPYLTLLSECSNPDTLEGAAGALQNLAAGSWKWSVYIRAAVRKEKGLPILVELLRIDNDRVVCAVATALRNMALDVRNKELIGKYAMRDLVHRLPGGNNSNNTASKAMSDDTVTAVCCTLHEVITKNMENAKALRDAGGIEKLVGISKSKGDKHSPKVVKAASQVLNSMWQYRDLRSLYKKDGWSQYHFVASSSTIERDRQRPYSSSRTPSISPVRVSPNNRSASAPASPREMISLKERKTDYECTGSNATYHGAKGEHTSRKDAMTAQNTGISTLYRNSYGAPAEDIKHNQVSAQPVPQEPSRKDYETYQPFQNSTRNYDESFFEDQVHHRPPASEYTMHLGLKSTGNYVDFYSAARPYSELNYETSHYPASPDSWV

[3] = target: T3, tripartite motif-containing 29 (human, UniProt Q14134 1-588); assay: Y2H; INT ID 404
T3 construct: also called TRIM29; cbe_3833533
T3 sequence: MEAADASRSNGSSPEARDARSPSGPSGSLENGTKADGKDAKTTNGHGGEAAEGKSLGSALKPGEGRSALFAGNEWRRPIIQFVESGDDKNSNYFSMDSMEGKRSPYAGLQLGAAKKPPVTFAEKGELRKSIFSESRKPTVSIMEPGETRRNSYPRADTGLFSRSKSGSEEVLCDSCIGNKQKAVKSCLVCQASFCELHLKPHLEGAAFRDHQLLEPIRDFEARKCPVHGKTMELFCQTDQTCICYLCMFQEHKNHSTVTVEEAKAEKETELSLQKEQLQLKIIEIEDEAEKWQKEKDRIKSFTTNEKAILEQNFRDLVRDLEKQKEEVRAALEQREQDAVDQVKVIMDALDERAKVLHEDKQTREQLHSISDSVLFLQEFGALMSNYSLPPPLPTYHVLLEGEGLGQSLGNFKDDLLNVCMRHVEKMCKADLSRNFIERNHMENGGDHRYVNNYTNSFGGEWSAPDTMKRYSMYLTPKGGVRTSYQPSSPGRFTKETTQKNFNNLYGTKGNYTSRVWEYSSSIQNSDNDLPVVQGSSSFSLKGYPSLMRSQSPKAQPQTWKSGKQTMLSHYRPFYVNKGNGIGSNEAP

[4] = target: the molecule itself; assay: Y2H; INT ID 393

Measured: binding result

B1: Human Papillomavirus 1a E1-E4 (other)
chain: MADNKAPQGLLGLLQYTPTTQPYPRVTPPSNRRPSTTPNSQDRGRPRRSDKDSRKHLYADGLTDGEDPEVPEVEDEEKENQRPLGHPDLSLLRETLEVYTQRLKRDILQDLDDFCRKLGIHPWSV
notes: also called HPV 1a E1-E4; cbe_251740
binds: all assays above
